Data reported in US20040235112.

Key:
GST-p38 = GST-p38 (UniProt Q16539)
GST-cJun(1-79) = GST-cJun(1-79) (UniProt P05412)
GST-JNK2 = GST-JNK2 (UniProt P45984)
GST-ATF2 = biological target: T1, GST-ATF2 (UniProt P15336)
T1 sequence: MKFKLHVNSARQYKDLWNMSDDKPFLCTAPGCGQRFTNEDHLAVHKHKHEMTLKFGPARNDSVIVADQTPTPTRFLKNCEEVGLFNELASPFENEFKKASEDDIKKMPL

Sequence of GST-p38 (Q16539 whole entry): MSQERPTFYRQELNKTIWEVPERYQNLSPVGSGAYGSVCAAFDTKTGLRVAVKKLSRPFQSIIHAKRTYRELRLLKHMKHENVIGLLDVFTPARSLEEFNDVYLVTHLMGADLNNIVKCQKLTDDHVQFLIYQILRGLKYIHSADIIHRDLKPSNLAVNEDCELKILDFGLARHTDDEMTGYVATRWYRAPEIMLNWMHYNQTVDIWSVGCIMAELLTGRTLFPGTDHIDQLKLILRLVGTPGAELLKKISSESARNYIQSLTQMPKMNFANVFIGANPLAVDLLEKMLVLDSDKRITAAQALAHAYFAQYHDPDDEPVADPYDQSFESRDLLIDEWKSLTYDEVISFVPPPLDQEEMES
Sequence of GST-cJun(1-79) (P05412 1-79): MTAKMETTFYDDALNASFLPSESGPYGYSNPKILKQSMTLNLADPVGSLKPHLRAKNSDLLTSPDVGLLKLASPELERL
Sequence of GST [GST: P08515] (P08515 whole entry): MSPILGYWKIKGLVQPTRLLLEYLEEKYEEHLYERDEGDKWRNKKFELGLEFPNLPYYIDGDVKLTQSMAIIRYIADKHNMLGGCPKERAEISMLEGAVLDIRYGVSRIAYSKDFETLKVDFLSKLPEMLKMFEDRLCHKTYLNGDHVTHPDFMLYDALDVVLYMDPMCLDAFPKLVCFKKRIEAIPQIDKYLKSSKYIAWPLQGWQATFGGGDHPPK

Row | Substance | phosphorylation of substrate in in vitro kinase assay ([γ-32P]ATP, SDS-PAGE, autoradiography) (His-ERK1[K52R]) | phosphorylation of substrate in in vitro kinase assay ([γ-32P]ATP, SDS-PAGE, autoradiography) (GST [GST: P08515]) | phosphorylation of substrate in in vitro kinase assay ([γ-32P]ATP, SDS-PAGE, autoradiography) (GST-p38) | phosphorylation of GST-Jun(1-79) in coupled in vitro kinase assay (GST-cJun(1-79)) | phosphorylation of substrate in in vitro kinase assay ([γ-32P]ATP, SDS-PAGE, autoradiography) (GST-JNK2) | phosphorylation of GST-ATF2 in coupled in vitro kinase assay (GST-ATF2) | phosphorylation of GST-p38 in immune complex kinase assay (HeLa lysates, anti-HA 12CA5 immunoprecipitate) (GST-p38)
1 | GST-MEK6 | MEK6 efficiently phosphorylated p38 but none of the other substrates | MEK6 efficiently phosphorylated p38 but none of the other substrates | MEK6 efficiently phosphorylated p38 but none of the other substrates | MEK6 did not cause increased phosphorylation of Jun (GST-Jun(1-79) ...) either directly or in combination with JNK2 | MEK6 efficiently phosphorylated p38 but none of the other substrates | ATF2 was not directly phosphorylated by MEK6 | –
2 | 3xHA-MEK6 | – | – | – | – | – | – | MEK6 activation by anisomycin as measured by its ability to phosphorylate p38, was observed as early as 10 min after treatment
